In patent publication EP4748847A1, “PEPTIDE COMPLEX HAVING VEGFR -2 AGONIST ACTIVITY” (Peptidream Inc, priority 2023, dated 2025):
Like-named read-outs stand apart in the source and are kept apart here. *1 amine or outer side, *2 acyl side, *3 side chain or, on linkers, in order; H or OH if unused. Where a SMILES comes first, the peptide text is derived from it. Bridges are numbered along the chain shown (N, C = ends). Roman numbers before positions name the chains, in order. Primed or numbered codes have the meaning given here. Where no end group is shown, it is not given here. [ ]: non-standard residue; d: D form. CO(CH2)2(OCH2CH2)17CO = O=C(CCOCCOCCOCCOCCOCCOCCOCCOCCOCCOCCOCCOCCOCCOCCOCCOCCOCCC(=O)[*:2])[*:1]; CO(CH2CH2O)9CH2CH2CO = O=C(CCOCCOCCOCCOCCOCCOCCOCCOCCOCCC(=O)[*:2])[*:1]; PEG12 = NCCOCCOCCOCCOCCOCCOCCOCCOCCOCCOCCOCCOCCC(=O)O; Phe(4-guanidino) = N=C(N)Nc1ccc(C[C@H](N)C(=O)O)cc1; hTyr = N[C@@H](CCc1ccc(O)cc1)C(=O)O; Cha = N[C@@H](CC1CCCCC1)C(=O)O; Chg = N[C@H](C(=O)O)C1CCCCC1; Tle = CC(C)(C)[C@H](N)C(=O)O; Ahp′ = not defined here

What was measured:
[1] = molecular target: T1, VEGFR-2 (Homo sapiens, UniProt P35968); test: pVEGFR AlphaLISA assay (VEGFR-2 phosphorylation, p-Tyr1175) in HUVECs; type: cell-based; settings: 10 minutes stimulation, % activity, maximum VEGF165a signal = 100%, unstimulated = 0%, peptide 10, 100 nM (dimer structures 2-41)
T1 construct: endogenous in cells; host or cells: HUVEC
Experimental: To evaluate the VEGFR-2 activation ability of the VEGFR-2 agonist peptides of the present invention, VEGFR-2 phosphorylation was verified. HUVECs were cultured using EGM™ -2 Endothelial Cell Growth Medium-2 BulletKit (LONZA; CC-3162). After detaching cells using Tryple (Thermo Fisher Scientific), they were seeded into a 96-well PDL-coated plate (Corning: 354461) at a density of 24,000 cells per well and cultured for 2 days. For starvation, the medium was replaced with EBM-2 medium (LONZA) containing 0.5% FBS (Thermo Fisher Scientific), 0.1% heparin (included with the above LONZA CC-3162), and 0.1% gentamicin (Nacalai), and the cells were cultured for 18 hours. Subsequently, Recombinant Human VEGF165a Protein (R&D Systems) or the peptide was added, and the cells were cultured in a CO2 incubator at 37°C. After 10 minutes of stimulation, cells were lysed using the Lysis Buffer included in the AlphaLISA SureFire Ultra VEGFR-2 (p-Tyr1175) Assay Kit (PerkinElmer) to lyse the cells. The procedure was performed according to the kit protocol, and signal detection was performed using a SpectraMax Paradigm multimode microplate reader (Molecular Devices). The obtained signals were analyzed using GraphPad Prism, and % activity was calculated with the maximum signal induced by VEGF165a set as 100% and the unstimulated control as 0%.
The VEGF165a concentration was evaluated at five points (0.08, 0.31, 1.25, 5, 20 nM) using 1/4-fold dilutions starting from 20 nM to determine the maximum value (100%). Peptide concentrations tested were: 3.2, 16, 80 nM for dimer structure number 1; 10, 100 nM for dimer structures numbers 2-41; and 1.25, 5, 20 nM for dimer structures numbers 42-57. […]
Peptides showing 50% or more activity at 10 nM were designated 2-A, those showing 50% or more activity at 100 nM were designated 2-B, and those showing 1% or more but less than 50% activity at 100 nM were designated 2-C.
Peptides showing 50% or more activity at 1.25 nM were designated 3-A, those showing 50% or more activity at 5 nM were designated 3-B, those showing 50% or more activity at 20 nM were designated 3-C, and those showing 1% or more but less than 50% activity at 20 nM were designated 3-D.

[2] = molecular target: T2, VEGFR-2 (human, UniProt P35968 20-1356); test: cell-based or functional assay
[3] = molecular target: T2, VEGFR-2; test: cell-based or functional assay; remark: listed apart in the source
[4] = molecular target: T2, VEGFR-2; test: cell-based or functional assay; remark: listed apart in the source

T1 sequence (P35968 20-1356): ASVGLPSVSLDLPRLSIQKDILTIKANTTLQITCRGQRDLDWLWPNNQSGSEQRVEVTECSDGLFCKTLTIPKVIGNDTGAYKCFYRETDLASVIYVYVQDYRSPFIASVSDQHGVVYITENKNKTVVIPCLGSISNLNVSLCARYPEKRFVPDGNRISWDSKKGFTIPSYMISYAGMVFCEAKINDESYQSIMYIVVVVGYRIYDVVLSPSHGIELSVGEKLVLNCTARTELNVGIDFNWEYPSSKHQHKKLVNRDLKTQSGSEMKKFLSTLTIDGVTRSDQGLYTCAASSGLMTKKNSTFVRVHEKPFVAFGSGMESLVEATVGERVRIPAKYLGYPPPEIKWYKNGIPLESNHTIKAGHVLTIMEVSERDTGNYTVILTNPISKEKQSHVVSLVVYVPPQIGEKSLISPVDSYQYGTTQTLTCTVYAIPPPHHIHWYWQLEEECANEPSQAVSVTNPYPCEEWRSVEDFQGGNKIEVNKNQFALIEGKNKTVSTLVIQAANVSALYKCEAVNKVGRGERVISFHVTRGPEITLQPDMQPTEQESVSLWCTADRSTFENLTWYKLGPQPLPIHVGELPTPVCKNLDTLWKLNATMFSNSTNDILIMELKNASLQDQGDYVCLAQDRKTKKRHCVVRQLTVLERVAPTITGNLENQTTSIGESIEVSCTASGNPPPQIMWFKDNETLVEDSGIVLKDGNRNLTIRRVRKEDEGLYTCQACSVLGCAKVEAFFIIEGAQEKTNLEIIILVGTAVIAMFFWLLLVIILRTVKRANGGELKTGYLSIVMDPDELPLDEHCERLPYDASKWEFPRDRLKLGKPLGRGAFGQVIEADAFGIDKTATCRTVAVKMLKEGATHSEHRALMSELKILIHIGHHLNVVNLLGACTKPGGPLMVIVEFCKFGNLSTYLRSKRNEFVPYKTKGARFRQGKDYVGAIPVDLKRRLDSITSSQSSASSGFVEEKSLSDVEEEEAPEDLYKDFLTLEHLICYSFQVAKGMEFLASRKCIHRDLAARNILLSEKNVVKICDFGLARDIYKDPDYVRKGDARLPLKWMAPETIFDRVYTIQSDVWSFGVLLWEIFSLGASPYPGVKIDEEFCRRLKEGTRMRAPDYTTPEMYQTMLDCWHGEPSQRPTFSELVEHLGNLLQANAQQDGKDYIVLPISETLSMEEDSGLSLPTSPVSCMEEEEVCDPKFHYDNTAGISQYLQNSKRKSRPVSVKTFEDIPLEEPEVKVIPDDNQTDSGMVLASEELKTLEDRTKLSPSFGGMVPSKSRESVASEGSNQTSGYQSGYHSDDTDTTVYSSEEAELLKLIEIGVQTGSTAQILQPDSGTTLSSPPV
T2 sequence (P35968 20-1356): as above

proliferation (HUVEC, CellTiter-Glo) [2]	pERK Assay Results (AlphaLISA p-Erk1/2, HUVEC) [3]	pERK Assay Results (AlphaLISA p-Erk1/2, HUVEC) [4]	Molecule	pVEGFR2 Assay Results [1]
			CC(C)C[C@@H]1NC(=O)[C@H](CC(=O)O)NC(=O)[C@H](CC(=O)O)NC(=O)[C@H](CCCCNC(=O)CCOCCOCCOCCOCCOCCOCCOCCOCCOCCOCCOCCOCCOCCOCCOCCOCCOCCC(=O)NCCCC[C@@H]2NC(=O)[C@H](C(C)C)NC(=O)[C@H](CC(=O)O)NC(=O)[C@H](C(C)(C)C)NC(=O)[C@H](Cc3c[nH]c4ccccc34)NC(=O)[C@H](Cc3c[nH]c4ccccc34)NC(=O)CSC[C@@H](C(=O)NCC(N)=O)NC(=O)[C@H](CC(=O)O)NC(=O)[C@H](C(C)C)NC(=O)[C@H](Cc3ccc(NC(=N)N)cc3)NC(=O)[C@H](Cc3ccc(O)cc3)NC(=O)[C@H](CC(C)C)NC(=O)[C@H](CC(=O)O)NC(=O)[C@H](CC(=O)O)NC2=O)NC(=O)[C@H](C(C)C)NC(=O)[C@H](CC(=O)O)NC(=O)[C@H](C(C)(C)C)NC(=O)[C@H](Cc2c[nH]c3ccccc23)NC(=O)[C@H](Cc2c[nH]c3ccccc23)NC(=O)CSC[C@@H](C(=O)NCC(N)=O)NC(=O)[C@H](CC(=O)O)NC(=O)[C@H](C(C)C)NC(=O)[C@H](Cc2ccc(NC(=N)N)cc2)NC(=O)[C@H](Cc2ccc(O)cc2)NC1=O [Dimer Structure No. 43] (I: {CH2CO}-WW[Tle]DVKDDLY[Phe(4-guanidino)]VDCG-NH2 / II: {CH2CO}-WW[Tle]DVKDDLY[Phe(4-guanidino)]VDCG-NH2; linker I:6-II:6 via CO(CH2)2(OCH2CH2)17CO; thioether I:N-I:14, II:N-II:14)	2-C (1% or more but less than 50% activity at 100 nM)
			CC(C)C[C@@H]1NC(=O)[C@H](CC(=O)O)NC(=O)CNC(=O)[C@H](CCC(N)=O)NC(=O)[C@H](C(C)C)NC(=O)[C@H](CC(=O)O)NC(=O)[C@H](C(C)C)NC(=O)[C@H](Cc2c[nH]c3ccccc23)NC(=O)[C@H](Cc2c[nH]c3ccccc23)NC(=O)CSC[C@@H](C(=O)NCC(=O)NCCOCCOCCOCCOCCOCCOCCOCCOCCOCCOCCOCCOCCC(=O)NCCCC[C@H](NC(=O)CCOCCOCCOCCOCCOCCOCCOCCOCCOCCOCCOCCOCCNC(=O)CNC(=O)[C@@H]2CSCC(=O)N[C@@H](Cc3c[nH]c4ccccc34)C(=O)N[C@@H](Cc3c[nH]c4ccccc34)C(=O)N[C@@H](C(C)C)C(=O)N[C@@H](CC(=O)O)C(=O)N[C@@H](C(C)C)C(=O)N[C@@H](CCC(N)=O)C(=O)NCC(=O)N[C@@H](CC(=O)O)C(=O)N[C@@H](CC(C)C)C(=O)N[C@@H](Cc3ccc(O)cc3)C(=O)N[C@@H](Cc3ccccc3)C(=O)N[C@@H](C(C)C)C(=O)N[C@@H](CC(=O)O)C(=O)N2)C(N)=O)NC(=O)[C@H](CC(=O)O)NC(=O)[C@H](C(C)C)NC(=O)[C@H](Cc2ccccc2)NC(=O)[C@H](Cc2ccc(O)cc2)NC1=O [compound 7] (I: {CH2CO}-WWVDVQGDLYFVDCG[PEG12]K-NH2 / II: {CH2CO}-WWVDVQGDLYFVDCG[PEG12]; amide I:17-II:C; thioether I:N-I:14, II:N-II:14)	2-C (1% or more but less than 50% activity at 100 nM)
			CC(C)C[C@@H]1NC(=O)[C@H](CC(=O)O)NC(=O)[C@H](CC(=O)O)NC(=O)[C@H](CCC(N)=O)NC(=O)[C@H](C(C)C)NC(=O)[C@H](CC(=O)O)NC(=O)[C@H](C(C)C)NC(=O)[C@H](Cc2c[nH]c3ccccc23)NC(=O)[C@H](Cc2c[nH]c3ccccc23)NC(=O)CSC[C@@H](C(=O)NCC(=O)NCCOCCOCCOCCOCCOCCOCCOCCOCCOCCOCCOCCOCCC(=O)NCCCC[C@H](NC(=O)CCOCCOCCOCCOCCOCCOCCOCCOCCOCCOCCOCCOCCNC(=O)CNC(=O)[C@@H]2CSCC(=O)N[C@@H](Cc3c[nH]c4ccccc34)C(=O)N[C@@H](Cc3c[nH]c4ccccc34)C(=O)N[C@@H](C(C)C)C(=O)N[C@@H](CC(=O)O)C(=O)N[C@@H](C(C)C)C(=O)N[C@@H](CCC(N)=O)C(=O)N[C@@H](CC(=O)O)C(=O)N[C@@H](CC(=O)O)C(=O)N[C@@H](CC(C)C)C(=O)N[C@@H](Cc3ccc(O)cc3)C(=O)N[C@@H](Cc3ccccc3)C(=O)N[C@@H](C(C)C)C(=O)N[C@@H](CO)C(=O)N2)C(N)=O)NC(=O)[C@H](CO)NC(=O)[C@H](C(C)C)NC(=O)[C@H](Cc2ccccc2)NC(=O)[C@H](Cc2ccc(O)cc2)NC1=O [compound 11] (I: {CH2CO}-WWVDVQDDLYFVSCG[PEG12]K-NH2 / II: {CH2CO}-WWVDVQDDLYFVSCG[PEG12]; amide I:17-II:C; thioether I:N-I:14, II:N-II:14)	2-C (1% or more but less than 50% activity at 100 nM)
≥ 50 % activity at 1.25 nM	≥ 50 % activity at 20 nM		{CH2CO}-WWVDVKDDLYFVDCG-NH2 (thioether N-14; also: homodimer: Lys6 joined to Lys6 of second copy by cPEG17c (Linker Structure No. 4)) [Peptide complex Dimer Structure No. 42]	
< 50 % activity at 100 nM		≥ 50 % activity at 10 nM	{CH2CO}-WWVDV[Cha]DDLYFVDCG (thioether N-14; also: dimer: C-terminus joined to second copy by PEG12c-K-PEG12c) [Peptide complex Dimer Structure No. 5]	
< 50 % activity at 100 nM		≥ 50 % activity at 10 nM	{CH2CO}-WWVDVK(CO(CH2CH2O)9CH2CH2CO)DDLYFVDCG-NH2 (thioether N-14; also: dimer: Lys6 joined to Lys6 of second copy by cPEG9c) [Peptide complex Dimer Structure No. 13]	
≥ 50 % activity at 10 nM	≥ 50 % activity at 10 nM		{CH2CO}-WW[Tle]DVKDDLYF[hTyr]SCG-NH2 (thioether N-14; also: homodimer: Lys6 joined to Lys6 of second copy by cPEG17c (Linker Structure No. 4)) [Peptide complex Dimer Structure No. 33]	
≥ 50 % activity at 10 nM		≥ 50 % activity at 10 nM	{CH2CO}-WW[Chg]DVKDDLYF[hTyr]DCG-NH2 (thioether N-14; not fully specified (residue 6); also: homodimer: Lys6 joined to Lys6 of second copy by cPEG17c (Linker Structure No. 4)) [Peptide complex Dimer Structure No. 25]	
≥ 50 % activity at 10 nM	≥ 50 % activity at 10 nM		{CH2CO}-WW[Tle]DVKDDNYF[hTyr]DCG-NH2 (thioether N-14; not fully specified (residues 5, 6); also: dimer joined at Lys6 side chains by cPEG17c) [Peptide complex Dimer Structure No. 29]	
< 50 % activity at 100 nM		≥ 50 % activity at 10 nM	{CH2CO}-WWVDVKDDLYFVDCG-NH2 (thioether N-14; not fully specified (residue 6); also: homodimer: Lys6 joined to Lys6 of second copy by cPEG13c (Linker Structure No. 3)) [Peptide complex Dimer Structure No. 14]	
< 50 % activity at 100 nM		≥ 50 % activity at 100 nM	{CH2CO}-WWVDV[Ahp′]DDLYFVDCG (thioether N-14; reading uncertain; also: dimer joined at Gly15 C-termini by PEG12c-K-PEG12c) [Peptide complex Dimer Structure No. 2]	
≥ 50 % activity at 10 nM	≥ 50 % activity at 10 nM		{CH2CO}-WW[Tle]DVKDDLYF[Chg]DCG-NH2 (thioether N-14; not fully specified (residue 6); also: homodimer: Lys6 joined to Lys6 of second copy by cPEG17c (Linker Structure No. 4)) [Peptide complex Dimer Structure No. 31]	
